Assay results published in US20240239890A1 (Chugai, published 2024).

T1: Human RNF43 extracellular domain (amino acids 1-190) with a Flag tag on its C terminus (human, UniProt Q68DV7 24-190)
T1 construct: also called recombinant human RNF43; human RNF43 ECD
T1 sequence: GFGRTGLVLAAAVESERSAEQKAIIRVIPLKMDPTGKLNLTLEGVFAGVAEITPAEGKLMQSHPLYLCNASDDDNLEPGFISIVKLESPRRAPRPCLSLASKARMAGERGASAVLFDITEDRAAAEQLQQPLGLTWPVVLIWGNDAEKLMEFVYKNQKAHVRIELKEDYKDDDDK


Biological target: T1, Human RNF43 extracellular domain (amino …)
Experiment: SPR, Biacore T200, antibody captured by anti-human Fc, RNF43 as analyte, pH 7.4, 25 C
Experimental: The affinity of the anti-RNF43 monospecific antibodies towards human RNF43 at pH 7.4 was determined at 25 degrees C. using the Biacore T200 instrument (GE Healthcare). Anti-human Fc (GE Healthcare) was immobilized onto all flow cells of a CM4 sensor chip using an amine coupling kit (GE Healthcare). All antibodies and analytes were prepared in ACES at pH 7.4 containing 20 mM ACES, 150 mM NaCl, 0.05% Tween 20, 0.005% NaN₃. Each antibody was captured onto the sensor surface by anti-human Fc. Antibody capture levels were aimed at 312 resonance unit (RU). Recombinant human RNF43 was injected at 200 nM, 50 nM, and 12.5 nM prepared by a four-fold serial dilution, followed by dissociation. The sensor surface was regenerated each cycle with 3M MgCl2. Binding affinity was determined by processing and fitting the data to a 1:1 binding model using the Biacore T200 Evaluation software, version 2.0 (GE Healthcare).

| Binder | Kd | koff | kon |
| --- | --- | --- | --- |
| RNN0187jj (antibody, human IgG1, kappa, N297A, Rabbit variable regions recombined with BS03aHis heavy-chain constant region and hk0MC light-chain constant region; also called anti-RNF43 monospecific antibody) heavy: QSLEESGGDLVKPGASLTLTCTASGFSFNSAYYMCWVRQAPGKGLEWIGCIYTGSGSTYYASWAKGRFTISKTSSTTVTLQMTSLTVADTATYFCARSGVSTYYTLWGPGTLVTVSSASTKGPSVFPLAPSSRSTSESTAALGCLVKDYFPEPVTVSWNSGALTSGVHTFPAVLQSSGLYSLSSVVTVPSSSLGTKTYTCNVDHKPSNTKVDKRVEPKSCDKTHTCPPCPAPELRRGPKVFLFPPKPKDTLMISRTPEVTCVVVDVSQEDPEVQFNWYVDGVEVHNAKTKPREEQFASTYRVVSVLTVLHQDWLNGKEYKCKVSNKGLPSSIEKTISKAKGQPREPQVYTLPPSREEMTKNQVSLTCLVKGFYPSDIAVEWESNGQPENNYKTTPPYLDSDGSFFLYSKLTVDKSRWQQGNVFSCSVMHEALHNHYTQESLSLSPHHHHHHHH light: DVVMTQTPSSVSAAVGGTVTIKCQASQSIYSGLAWYQQKPGQPPKLLIYGASTLASGVPSRFKGSGSGTEYTLTISGVQCDDAATYYCQNNYYTPSNGWAFGGGTKVEIKRTVAAPSVFIFPPSDEQLKSGTASVVCLLNNFYPREAKVQWKVDNALQSGNSQESVTEQDSKDCTYSLSSTLTLSKADYEKHKVYACEVTHQGLSSPVTKSFNRGEC | 17 nM | 0.0467 s⁻¹ | 2.75e+06 M⁻¹ s⁻¹ |
| RNN0191kk (antibody, human IgG1, kappa, N297A, V domains shown, Rabbit variable regions recombined with BS03aHis heavy-chain constant region and hk0MC light-chain constant region; also called anti-RNF43 monospecific antibody) VH: QSLEESGGRLVTPGGSLTLTCTASGFSLSSYAIGWVRQAPGKGLEYVGIIERNDKTAYASWAKGRFTISRTSTTVDLKMTSLTTEDTATYFCARGYLDNSPLWGPGTLVTVSS VL: AIEMTQTPASVSAAVGGTVTINCQSSQSVGDNIWLGWYQQKPGQPPKLLIRYASTLASGVPSRFKGSGSGTQFTLTISDLECDDAATYYCAGAYNGLIYSFGGGTKVEIKR | 71.1 nM | 0.294 s⁻¹ | 4.14e+06 M⁻¹ s⁻¹ |
| RNN0192nn (antibody, human IgG1, kappa, N297A, Rabbit variable regions recombined with BS03aHis heavy-chain constant region and hk0MC light-chain constant region; also called anti-RNF43 monospecific antibody) heavy: QEQLVESGGGLVQPEGSLTLTCTASGFSFSSRYYMCWVRQAPGKGLEWIGCIYTGSGSTYYASWAKGRVTISKTSSTTVTLQMTSLTAADTATYFCAREAGSFNLWGPGTLVTVSSASTKGPSVFPLAPSSRSTSESTAALGCLVKDYFPEPVTVSWNSGALTSGVHTFPAVLQSSGLYSLSSVVTVPSSSLGTKTYTCNVDHKPSNTKVDKRVEPKSCDKTHTCPPCPAPELRRGPKVFLFPPKPKDTLMISRTPEVTCVVVDVSQEDPEVQFNWYVDGVEVHNAKTKPREEQFASTYRVVSVLTVLHQDWLNGKEYKCKVSNKGLPSSIEKTISKAKGQPREPQVYTLPPSREEMTKNQVSLTCLVKGFYPSDIAVEWESNGQPENNYKTTPPYLDSDGSFFLYSKLTVDKSRWQQGNVFSCSVMHEALHNHYTQESLSLSPHHHHHHHH light: DVVMTQTPASVSEPVGGTVTIKCQASQSIYSGLAWYQQKPGQPPKLLIYSASKLASGVPSRFKGSGSGTEYTLTISDLECADAATYYCQNYYYGISNGWTFGGGTKVEIKRTVAAPSVFIFPPSDEQLKSGTASVVCLLNNFYPREAKVQWKVDNALQSGNSQESVTEQDSKDCTYSLSSTLTLSKADYEKHKVYACEVTHQGLSSPVTKSFNRGEC | 0.928 nM | 0.00558 s⁻¹ | 6.02e+06 M⁻¹ s⁻¹ |
| RNN0193jj (antibody, human IgG1, kappa, N297A, Rabbit variable regions recombined with BS03aHis heavy-chain constant region and hk0MC light-chain constant region; also called anti-RNF43 monospecific antibody) heavy: QSLEESGGDLVKPGASLTLTCTASGFSFSNNYWICWVRQAPGKGPEWIACIYTGDGDTDYASWAKGRFTISKTSSTTVTLQMTSLTAADTATYFCAREAGTVDGVWNYVFNLWGPGTLVTVSSASTKGPSVFPLAPSSRSTSESTAALGCLVKDYFPEPVTVSWNSGALTSGVHTFPAVLQSSGLYSLSSVVTVPSSSLGTKTYTCNVDHKPSNTKVDKRVEPKSCDKTHTCPPCPAPELRRGPKVFLFPPKPKDTLMISRTPEVTCVVVDVSQEDPEVQFNWYVDGVEVHNAKTKPREEQFASTYRVVSVLTVLHQDWLNGKEYKCKVSNKGLPSSIEKTISKAKGQPREPQVYTLPPSREEMTKNQVSLTCLVKGFYPSDIAVEWESNGQPENNYKTTPPYLDSDGSFFLYSKLTVDKSRWQQGNVFSCSVMHEALHNHYTQESLSLSPHHHHHHHH light: AQVLTQTPSPVSAAVGGTVTISCQSSQSVYNDNLAWFQQKPGQPPKLLIYDASTLASGVPSRFKGSGSGTQFTLTISKLQCDDAATYYCQGVYIGHIFTFGGGTKVEIKRTVAAPSVFIFPPSDEQLKSGTASVVCLLNNFYPREAKVQWKVDNALQSGNSQESVTEQDSKDCTYSLSSTLTLSKADYEKHKVYACEVTHQGLSSPVTKSFNRGEC | 63.5 nM | 0.0458 s⁻¹ | 721000 M⁻¹ s⁻¹ |
| RNN0198oo (antibody, human IgG1, kappa, N297A, V domains shown, Rabbit variable regions recombined with BS03aHis heavy-chain constant region and hk0MC light-chain constant region; also called anti-RNF43 monospecific antibody) VH: QEQLVESGGGLVQPEGSLTLTCKASGLDFSSSYWMCWVRQAPGKGLEWIGCIYTGSSGSTYYASWAKGRFTISKTSSTTVTLQMTSLTAADTATYFCARTGSRYWNYFELWGPGTLVTVSS VL: DVVMTQTPPSVSAAVGGTVTIKCQASQSIYRGLAWYQQKPGQPPNLLIYSASTLASGVPSRFSGSGSGTEYTLTISDLECADAATYYCQSYYYSSSNGWPFGGGTKVEIKR | 1.11 nM | 0.00291 s⁻¹ | 2.63e+06 M⁻¹ s⁻¹ |
| RNN0207ii (antibody, human IgG1, kappa, N297A, Rabbit variable regions recombined with BS03aHis heavy-chain constant region and hk0MC light-chain constant region; also called anti-RNF43 monospecific antibody) heavy: QEQLEESGGRLVTPGGSLTLTCTASGFSLSSYVISWVRQAPGEGLEYIGYVSTGGSPYYASWAKGRFTISRTSTAVDLKMTSLTASDTATYFCARYGYLDYSGLDLWGQGTLVTVSSASTKGPSVFPLAPSSRSTSESTAALGCLVKDYFPEPVTVSWNSGALTSGVHTFPAVLQSSGLYSLSSVVTVPSSSLGTKTYTCNVDHKPSNTKVDKRVEPKSCDKTHTCPPCPAPELRRGPKVFLFPPKPKDTLMISRTPEVTCVVVDVSQEDPEVQFNWYVDGVEVHNAKTKPREEQFASTYRVVSVLTVLHQDWLNGKEYKCKVSNKGLPSSIEKTISKAKGQPREPQVYTLPPSREEMTKNQVSLTCLVKGFYPSDIAVEWESNGQPENNYKTTPPYLDSDGSFFLYSKLTVDKSRWQQGNVFSCSVMHEALHNHYTQESLSLSPHHHHHHHH light: AQVLTQTPSSTSTAVGGTVTINCQSSQSVYEYNHLSWFQQKPGQPPKLLIYGASTLASGVPSRFKGSGSGTQFTLTISDLECDDAATYYCQGAYYGVVDTFGGGTKVEIKRTVAAPSVFIFPPSDEQLKSGTASVVCLLNNFYPREAKVQWKVDNALQSGNSQESVTEQDSKDCTYSLSSTLTLSKADYEKHKVYACEVTHQGLSSPVTKSFNRGEC | 73.1 nM | 0.106 s⁻¹ | 1.45e+06 M⁻¹ s⁻¹ |
| RNN0242nn (antibody, human IgG1, kappa, N297A, Rabbit variable regions recombined with BS03aHis heavy-chain constant region and hk0MC light-chain constant region; also called anti-RNF43 monospecific antibody) heavy: QQQLEEYGGDLVQPEGSLTLTCKASGLDFSSSYWMCWVRQAPGKGLEWIACIYTGSSGSTSYASWAKGRFTISKTSSTTVTLQMTSLTAADTATYFCARDYDYTAYAYGIMSLWGPGTLVTVSSASTKGPSVFPLAPSSRSTSESTAALGCLVKDYFPEPVTVSWNSGALTSGVHTFPAVLQSSGLYSLSSVVTVPSSSLGTKTYTCNVDHKPSNTKVDKRVEPKSCDKTHTCPPCPAPELRRGPKVFLFPPKPKDTLMISRTPEVTCVVVDVSQEDPEVQFNWYVDGVEVHNAKTKPREEQFASTYRVVSVLTVLHQDWLNGKEYKCKVSNKGLPSSIEKTISKAKGQPREPQVYTLPPSREEMTKNQVSLTCLVKGFYPSDIAVEWESNGQPENNYKTTPPYLDSDGSFFLYSKLTVDKSRWQQGNVFSCSVMHEALHNHYTQESLSLSPHHHHHHHH light: AEIVMTQTPSSKSAAVGDTVTIKCQASQSITSYLSWYQQKPGQPPKLLIYRASTLASGVPSRFKGSGSGTQFTLTISDLECADAATYYCQSNYGSYSTNYGVTFGGGTKVEIKRTVAAPSVFIFPPSDEQLKSGTASVVCLLNNFYPREAKVQWKVDNALQSGNSQESVTEQDSKDCTYSLSSTLTLSKADYEKHKVYACEVTHQGLSSPVTKSFNRGEC | 33.3 nM | 0.0235 s⁻¹ | 704000 M⁻¹ s⁻¹ |
| RNN0246jj (antibody, human IgG1, kappa, N297A, Rabbit variable regions recombined with BS03aHis heavy-chain constant region and hk0MC light-chain constant region; also called anti-RNF43 monospecific antibody) heavy: QSVEESGGRLVTPDETLTLTCTVSGFSLNNYHMIWVRQAPGEGLEYIGFINTGGSAYYANWAKGRFTISKTSTTVDLKITSPTTEDTATYFCASVSWRTDYSFELWGPGTLVTVSSASTKGPSVFPLAPSSRSTSESTAALGCLVKDYFPEPVTVSWNSGALTSGVHTFPAVLQSSGLYSLSSVVTVPSSSLGTKTYTCNVDHKPSNTKVDKRVEPKSCDKTHTCPPCPAPELRRGPKVFLFPPKPKDTLMISRTPEVTCVVVDVSQEDPEVQFNWYVDGVEVHNAKTKPREEQFASTYRVVSVLTVLHQDWLNGKEYKCKVSNKGLPSSIEKTISKAKGQPREPQVYTLPPSREEMTKNQVSLTCLVKGFYPSDIAVEWESNGQPENNYKTTPPYLDSDGSFFLYSKLTVDKSRWQQGNVFSCSVMHEALHNHYTQESLSLSPHHHHHHHH light: AQVLTQTPSPVSAAVGGTVTISCQASQSVYANNRLAWFQQKPGQPPKLLIYSASTLASGVPSRFKGSGSGTQFTLTISGVQCDDAATYYCAGAYTGNIYTFGGGTKVEIKRTVAAPSVFIFPPSDEQLKSGTASVVCLLNNFYPREAKVQWKVDNALQSGNSQESVTEQDSKDCTYSLSSTLTLSKADYEKHKVYACEVTHQGLSSPVTKSFNRGEC | 48.6 nM | 0.00944 s⁻¹ | 194000 M⁻¹ s⁻¹ |
| RNN0275kk (antibody, human IgG1, kappa, N297A, V domains shown, Rabbit variable regions recombined with BS03aHis heavy-chain constant region and hk0MC light-chain constant region; also called anti-RNF43 monospecific antibody) VH: QSVEESGGRLVTPGTPLTLTCTVSGWTINSYHMCWVRQAPGEGLEWIATITTGGVTFYANWARGRFTISKTSTTVDLKMTSLTAADTATYFCVRGPDYTYFDLWGPGTLVTVSS VL: NVVLTQTPSSVSAAVGGTVTIKCQASQSISDTLAWYQQKPGQPPKLLIYYASDLASGVPSRFSGSGSGTEFTLTINDLECADAATYYCQSYVYSNGIDNTFGGGTKVEIKR | 65.6 nM | 0.131 s⁻¹ | 1.99e+06 M⁻¹ s⁻¹ |
| RNN0276oo (antibody, human IgG1, kappa, N297A, V domains shown, Rabbit variable regions recombined with BS03aHis heavy-chain constant region and hk0MC light-chain constant region; also called anti-RNF43 monospecific antibody) VH: QSVEESGGRLVTPGTPLTLTCTVSGFSLSSYAMNWVRQAPGKGLEWIGVIGSSGRTYYASWAKGRFTSSKTSTTVVLKITSPTTEDTATYFCARGPYDSYGDGGVTGDLWGPGTLVTVSS VL: AQVLTQTPSPVSAAVGGTVTINCQSSQSVYNNNNLAWYQQKPGQPPKLLIYRASTLASGVPSRFKGSGSGTQFTLTISGVQCEDAATYYCQGGYDCSSADCDTFGGGTKVEIKR | 117 nM | 0.0227 s⁻¹ | 193000 M⁻¹ s⁻¹ |
